Data taken from patent publication US20180100009A1 (VHSQUARED, published 2018).

Legend:
[1] = target: T1, TcdA from C. difficile ribotype 087 (Clostridium difficile ribotype 087 …, UniProt P16154 1-2710); experiment: sandwich ELISA
T1 construct: also called 087 TcdA; TcdA 10463 (087)

[2] = target: T2, TcdB from C. difficile ribotype 087 (Clostridium difficile ribotype 087, UniProt P18177 2-2366); experiment: ELISA: TcdB coat, quadrahead, detected with rabbit polyclonal anti-ICVD
T2 construct: also called 087 TcdB

[3] = target: T3, TcdA from C. difficile ribotype 027 (Clostridium difficile ribotype 027 …, UniProt P16154 1-2710); experiment: sandwich ELISA: TcdB coat, quadrahead, TcdA 0-20 ng/ml, rabbit anti-TcdA pAb
T3 construct: also called 027 TcdA; TcdA R20291 (027)

[4] = target: T3, TcdA from C. difficile ribotype 027; experiment: sandwich ELISA

Measured: binding result

B1: ID-1C (bispecific antibody)
chain: DVQLQESGGGLVQAGGSLRLSCAASGATSDVYAIGWFRQVPGKEREFVATINRSGSDSYYADSVKGRFTISRDNAKNTVYLQMNSLKPEETAVYYCAASRSDCIGYGCRRVSQDYWGQGTQVTVSSGGGGSGGGGSGGGGSGGGGSDVQLQESGGGLVQAGGSLRLSCVISGMDFSHKPAGWFRQAPGKEREFVASITTRASTHYADSVKGRFTISRDNAKNTVYLEMNSLKPEDTAVYYCNSEYYWGQGTQVTVSSGGGGSGGGGSGGGGSGGGGSDVQLQESGGGLVQAGDSLRLSCAASGATLSSYTIGWFRQAPEKEREFVAGSSRDGRTNYYANSVKGRFTISRDNAKNTVYLQMNSLKPEDTAVYYCAAHTTSGVPVRERSYAYWGQGTQVTVSSGGGGSGGGGSGGGGSGGGGSDVQLQESGGGLVQAGGSLRLSCAASGATFSSYYIGWFRQAPGKEREFVAAINGSGGNRISADSVKGRFTISRDNAKNTVYLQLNSLKPEDTAVYYCAASLTYYGRSARYDYWGQGTQVTVSS
notes: also called 1D-1C
binds: [1] | [2] | [3]

B2: ID-3C (bispecific antibody)
chain: DVQLQESGGGLVQAGDSLRLSCAASGATLSSYTIGWFRQAPEKEREFVAGSSRDGRTNYYANSVKGRFTISRDNAKNTVYLQMNSLKPEDTAVYYCAAHTTSGVPVRERSYAYWGQGTQVTVSSGGGGSGGGGSGGGGSGGGGSDVQLQESGGGLVQAGGSLRLSCAASGATSDVYAIGWFRQVPGKEREFVATINRSGSDSYYADSVKGRFTISRDNAKNTVYLQMNSLKPEETAVYYCAASRSDCIGYGCRRVSQDYWGQGTQVTVSSGGGGSGGGGSGGGGSGGGGSDVQLQESGGGLVQAGGSLRLSCVISGMDFSHKPAGWFRQAPGKEREFVASITTRASTHYADSVKGRFTISRDNAKNTVYLEMNSLKPEDTAVYYCNSEYYWGQGTQVTVSSGGGGSGGGGSGGGGSGGGGSDVQLQESGGGLVQAGGSLRLSCAASGATFSSYYIGWFRQAPGKEREFVAAINGSGGNRISADSVKGRFTISRDNAKNTVYLQLNSLKPEDTAVYYCAASLTYYGRSARYDYWGQGTQVTVSS
binds: [4] | [1] | [2]
